The values that follow come from the nanobody polyreactivity screen of Harvey et al. (2022).

A short description of the data set: yeast display, Sf9 membrane polyspecificity reagent, FACS + sequencing; frameworks hold sequencing errors. The essentials:
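In a synthetic yeast display library (Saccharomyces cerevisiae BJ5465), nanobody expression was induced with galactose for 36–48 hours. FACS gates were set low and high (top ~1%) using anti-HA fluorescence for expression and streptavidin fluorescence for binding of the Sf9 membrane reagent. Each polyreactivity label is drawn from the gate of origin.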
For the sequence “QVQLVESGGGLVQAGGSLRLSCAASGITFYYNAMGWYRQAPGKERELVAAISDGSSTNYADSVKGRFTISRDNAKNTVYLQMNSLKPEDTAVYYCNASWSFPVSGYESRSPGKLDYWGQGTQVTVYS”, the “polyreactivity (PSR sort gate)” value is reported as “low polyreactivity”.
As to “QVQLVESGGGLVQAGGSLRLSCAASGITFSGNAMGWYRQAPGKERELVAAISRNGGRTYYADSVKGRFTISRDNAKNTVYLQMNSLKPEDTAVYYCAKDAYGYSRVSAWYYTYDYWGQGTQVTVSS”, the “polyreactivity (PSR sort gate)” value is given as “high polyreactivity”.
As to “QVQLVESGGGLVQAGGSLRLSCAASGRIFDIYAMGWYRQAPGKERELVAAIDESGGSTYYADSVKGRFTISRDNAKNTVYLQMNSLKPEDTAVYYCATDDTWTISYGWYWFTYEYWGQGTQVTVSS”, the “polyreactivity (PSR sort gate)” value was “low polyreactivity”.
Then “QVHLVESGGGLVQAGGSLRLSCAASGRPFYIYAMGWYRPAPGKERELVAAITWSGGTTYYADSVKGRFTISRDTANNTVYLQMNSQKPQDTAVYYCNASFRRGFDYWGQGTQVTVSS”, with “low polyreactivity”.
Turning to “QVQLVESGGGLVQAGGSLRLSCAASGFILQRYAMGWYRKAPGKERELVAAITSSGGRTYYADSVKGRFTISRDNANNTVYLQMNSLKPEDTAVYYCNTVLVYYRMIKFEYWGQGTQVTVSS”, the “polyreactivity (PSR sort gate)” value is listed as “high polyreactivity”.
As for “QVQIVDSGGGLVQAGGSLRLSCAASGSTFIPNDMGWYRQAPGKERELVAAITVSGDDTYYADSVKGRFTISRDNAKNTVYIQMNSLKPDDTAVYYCNVDDPFYSGVVVFDYWGQGTLVTVSS”, the “polyreactivity (PSR sort gate)” value was “low polyreactivity”.
Then “QVQLVESGGGLVQAGGSLRLSCAASGFTFTYNAMGWYRQAPGKERELVAGITLGSRTNYADSVKGRFTISRDNAKNTVYLQMNSLKPEDTAVYYCAVRYYGGYGYWGQGTQVTVSS”, with “high polyreactivity”.
Then “QVQLVESGGGLVQAGGSLRLSCAASGRIFYTYAMGWYRQAPGKERELVAAINRSGSSTYYADSVKGRFTISRDNAKNTVYLQMNSLKPEDTAVYYCNAQSYRYYGWVLTDVDYWGQGTQVTVSS”, with “low polyreactivity”; and “QVQLVESGGGLVQAGGSLRLSCAASGYIFVGNAMGWYRQAPGKERELVATIRSSTGNTYADSVKGRFTISRDNAKNTVYLQMNSLKPEDTAVYYCATVYELPGWGREYGYWGQGTQVTVSS”, with “low polyreactivity”.
Consider “QVQLVESGGALVQAGGRLRLSCAASGLTLHRYTMGWYRQAPGKERELVAVITYGGGNTYYADSVKGRFTISRDNAKNTVYLQMNSLKPEDNAVYYCAARYPPFYWYDYWGQGTQVSVSS”, for which the “polyreactivity (PSR sort gate)” value is “low polyreactivity”.
Then “QVQLVETGGGLVQAGGSLRLSCAASGSTFEYYAMGWYRQAPGKERELVAAISSGPSTTYADSVKGRFTISRDNAKNTVYLQMNSLKPEDTAVYYCARRDGTTQALFGYDYWGQGTQVTVSS”, with “low polyreactivity”.
For “QVQLVESGGGLVQAGGSLRLSCAASGRILEGYAMGWYRQAPGKEELVAAITSDASTYYADSVKGRFTMSRDNAKNTVYLQINSLKPEDTAVYYCAADTYDNDYYYWGQGTLVTVSS”, the “polyreactivity (PSR sort gate)” value is “high polyreactivity”.
Then “QVQLVESGGGLVQAGGSLRLSCGASGRIFYSNAMGWYRQAPGTERELVAAITGSGGRTHYADSVKGRFTISRDNAKNTVYLQMNSLKPEDTAVYYCAKDGYFPEFDYWGQGTQVTVSS”, with “high polyreactivity”; and “QVQLVESGGGLVQAGGSLRLSCAACVRTFSGYAMGWYRPAPGKERELVAAIRWSGGSTYYADSVKGRFTISRDNAKNTVYLQMNSLKPEDTAVYYCATRDYYYRYGYWGQGTQVTVSS”, with “high polyreactivity”; and “QVQLVESGGGLVQAGGSLRLSCPASGGIFGRYAMGWYRQAPGKERELVAAISSSGGRTYYADSVKGRFTISRDNAKNTVYLQMNSLKPEDTAVYYCNADRHSTYGYWGQGTQVTVSS”, with “high polyreactivity”.
As to “QVQLQESGRRPGAAGGSPRMSCAASGNIFWVAVMGRYRQAPGKERELVASIGFGCTTYYADSVKCRFTISRDNAKNTVYLQMISLKPEDTAVYYCAAPHYDWGEIDYWGQGTQVPVSS”, the “polyreactivity (PSR sort gate)” value is on record as “low polyreactivity”.
For “KVHLVDSGGRLVQAGGSLRLSCSASGSIFYVYAMGWYRQAPGTERELVATISSSAGSTYYAYSVKGRFTISRDNAKNTVNLQMYSLNPVDTAVYYCYADSFLSWVYRYVYYVSGLWGQGTQVTVSS”, the “polyreactivity (PSR sort gate)” value is “low polyreactivity”.
Then “QVQLVESGGVLVQAGGSLRLSCAASGSIFSAYVMGWYRQAPGKERELVAAINRGGNTYYADSVKGRFTISRDNAKNTVYLQMNSLKPEDTAVYYCNAQWYYLRYRYDYWGQGTQVTVSS”, with “high polyreactivity”; and “QVQLVESGGGLVQAGGSLRLSCAASGNTFAGNAMGWYRQATGKERELVAAISWSGTRTYYADSVKGRFTISRDNAKNTVYLQMNSLKPEDTAVYYCAKLSTNKEYYWGQGTQVTVSS”, with “high polyreactivity”.
As for “QVQLVESGGGLVQAGGSLRLSCAASGSIFQINVMGWYRQAPGKERELVAASYADSVKGRFTISRDNAKNTVYLQMNSLKPEDTAVYYCARSNPAYSIYDYWGQGTQVTVSS”, the “polyreactivity (PSR sort gate)” value is listed as “low polyreactivity”.
“QVQLVESGGCLDQAGGRLRLSCAASGSTFYDYVMGWYRQAPGKERELVAVISSSGSTNYADSVKGRVTISRDNAKNTVYLQMNSLKPEDTAVYYCAVDPFRRWWETIFDEYDYWGQGTQVTVSS”: the “polyreactivity (PSR sort gate)” value is “low polyreactivity”.
On to “QVQLVESGGGLVQAGGSLRLSCAASGRIFTVYGMGWYRQAPGKERELVAAISWSGGGTYYADSVKGRFTISRDNAKNTVYLHMNSLKPEDTAVYYCNADRQYTWSLVFFSSDYDYWGQGTQVTVSS”, for which the “polyreactivity (PSR sort gate)” value is given as “low polyreactivity”.
As to “QVQLVESGGGLVQAGGSLRLSCAASGSTFGHNAMGWYRQAPGKERELVAAIDSGDGTTYADSVKGRFTISRDNAKNTVYFQMNSLKPEDTAVYYCAATTDRAEDDDNIGGYWGQGTQVTVSS”, the “polyreactivity (PSR sort gate)” value is given as “low polyreactivity”.
Then “QVQLVESGGGLVQAGGSLRLICAASGFIFSTYAMGWYRQAPGKERELVAAISWSGGRTNYADSVKGRFTISRDNAKNTVYLQMNSLKPEDTAVYYCARYGHSGRQYKYDYWGQGTQVTVSS”, with “high polyreactivity”; and “QVQLVESGGGLVQAGGSLRLSCAASGSTLVTNPMGWYRQAPGKERELVAAITFSGGTTYYADSVKGRFTISRDTAKNTVYLHMNSLKPEDTAVYYCAAEIWLEYVGYDYWGQGTQVTVSS”, with “high polyreactivity”.
In the case of “QVQLVESGGGLVQAGGSLRLSCAASGRTFYKNAMGWYRQAPGKERELVATITSGGSTNYADSVKGRFTISRDNAKNTVYLQMNSLKPEDTAVYYCAAAKPVQFRIAQAHVGYWGQGTQVTVSS”, the “polyreactivity (PSR sort gate)” value is recorded as “low polyreactivity”.
As for “QVQLVESGGGLVQAGGSLRLSCAASGRIGTNAMGCYRQAPGKERELVAAISKRGGSTHYADSVKGRFTISRDNAKNTVYLQMNSMKPEDTAVYYCAASRAVGYDYWGQGTEVTVSS”, the “polyreactivity (PSR sort gate)” value was “high polyreactivity”.
Then “QVQLVESWGGLVQAGGSLRLSCAASGSLFTSNAMVWYRQAPGKEREFVAGIDYSTGGTSYADSVKGRFTISRDNAKNNVYLQMNRLLPEDTAVYYCNADRWLVYVHTWEYDYWGQGTQVTVSS”, with “low polyreactivity”; and “QVQLVESGGGLVQAGGSLRLSCAASGRISARYVMGWYRQAPGKERELVAAISWSGDRTYYADSVKGRFTISRDNAKNTVYLQMNSLKPEDTAVYYCATGFYSRLAYGYGYWGQGSQVTVSS”, with “high polyreactivity”.
As to “QVQHVESGGGLVQAGGSLRLSCAASGRTFRRNAVGWYRQAPGNERELVATISRGGSTTYADSVKGRFTISRDKAKNTVYLQMNSLKPEDTAVYYCAARTSKRYSYADHDYWGQGTQVTVSS”, the “polyreactivity (PSR sort gate)” value is on record as “low polyreactivity”.
Then “QVQLVESGGGLVQAGGSLRLSCAASGLTFYWYAMGWYRQAPGKERELVAAITSTGSTYYADSVKGRFTISRDNAKNTVYLQMNSLKPEDTAVYYCNADFPANWGWDYDYWGQGTQVTVSS”, with “low polyreactivity”; and “QVQLVESGGGLVQAGGSLRLSCAASGFIFSSYAMGWYRQAPGKERELVAAITVRAGRTYYADSVKGRFTISRDNATNTVYFQMNSVKAEDTAVDYCAAAYRHPYGKYVYWGQGTQVTVSS”, with “high polyreactivity”; and “QVQLVESGGGLVQAGGSLRLSCAASGSTFRSYTMGWYRHAPGKEMELVARISRSGGSTYYADSVKGRFTISRDNAKNTVYLQMNSLKPEDTAVYYCAALYYVKPGQRYDYWGQGTQVTVSS”, with “high polyreactivity”.
Then “QVQLVESGGGLVQAGGSLRLSCAASGRTFGLYAMGWYRQAPGKERELVAAISWGGGRTYYADSVKGRFTISRDNAKNTVYLQMNSLKPEDNAVYYCNAVYSPRYYVGGYDYWGQGTQVTVSS”, with “high polyreactivity”.
Take “QVQLVESGGGLVQAGGSLRLSCAASGSIFDVNAMGWYRQAPGKERELVAAITSSGGSTYYADSVKGRFTISRDNAKNTVYLQMNSLKPVDTAVYYCAAYSLYTMYWGQGTQVTVSS”: the “polyreactivity (PSR sort gate)” value was “low polyreactivity”.
Then “QVKLVESVGGLVQAGGRLRLSCAASGSILYFNAMGWYRQAPGKERELVAAISKSGGRTYYADSVKGRFTISRDNAKNTVYLQMNCLKPEDTAVYYCAKDNYWGQGTQVTVSS”, with “high polyreactivity”; and “QVQLVESGGGLVQAGGSLRLSCAASGFIFANYVMGWYRQAPGKERELVAAITYSGNTYYADSVKGRFTISRDNAKNTVYLQMNSLKPVDTAVYYCNADYVEGGLPGYDFDYWGQGTQVTVSS”, with “low polyreactivity”.
Take “QVQLVDSGGGLVQAGGSLRLSCAASGRIVELYAMGGYRQAPGKEREMVAVITNGGSTYYADSVKGRFTISRDNAKNTVYLQMNSLKPEDTAFYFCNARRGYNRVGGSYGYWGQGTQVTVSS”: the “polyreactivity (PSR sort gate)” value is listed as “low polyreactivity”.
Then “QVQLVESGGGLVQAGGSLRLSCAPSRFIFFFYAMGWYRQAPGKERELVAAISDGVSTYYADSVKGRFTISRDNAKNTVYLQKNSLKPDDTAVYYCAVSRGDDPEFDYWGKGTQVTVSS”, with “low polyreactivity”; and “HVQLEESGGGLVQAGGSLRLSCAASGFTFNRYAMGWYRQAPGKERELVAAISSGGRTYYADSVKGRFTISRDNAKNTVYLQMNRLKPDDTAVYYCAADWSLYSHEFDYWGQGTQVTVSS”, with “high polyreactivity”.
Then “QVQLVESGGGLVQAGGSLRLSCAASGRIFTFNAMGWYRQAPGKERELVAAGSTYYADSVKGRFTISRDNAKNTVYLQMNSLKPEDTAVYYCAVEDLGSEGWGWYKEMDYWGQGTQVTVSS”, with “low polyreactivity”.
